Molecular target: YFPN-hAQP4 (human aquaporin 4 fused N-terminally to the YFPN fragment) (human) (UniProt P55087)
Assay: split reporter (BiFC, NanoBiT); YFPN-hAQP and YFPC-CaM co-expressed in S. cerevisiae; living cells at OD600 0.5 read by flow cytometry (FACSMelody, excitation 488 nm, FITC channel 527/32 nm); fluorescence frequency and intensity of gated cells; three transformations, ten replicates each

Sequence of UniProt P55087 (P55087 whole entry, the tested form may be a part): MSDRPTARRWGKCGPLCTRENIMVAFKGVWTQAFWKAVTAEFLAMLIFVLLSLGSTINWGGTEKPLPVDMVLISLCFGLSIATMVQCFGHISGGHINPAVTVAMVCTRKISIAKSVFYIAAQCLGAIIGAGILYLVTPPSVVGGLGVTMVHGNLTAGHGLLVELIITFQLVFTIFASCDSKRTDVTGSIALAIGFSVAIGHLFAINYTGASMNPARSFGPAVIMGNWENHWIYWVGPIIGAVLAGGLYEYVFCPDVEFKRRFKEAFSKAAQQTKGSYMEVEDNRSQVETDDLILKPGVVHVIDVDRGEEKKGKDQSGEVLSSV

average fluorescence intensity (BiFC): 1700
Substance: YFPC-CaM (calmodulin fused N-terminally to the YFPC fragment) (from UniProt P0DP23 1-149) (natural protein)

— PMC12317118
